Values of other authors, collected in PMC10687467.

What was measured:
[1] = biological target: ApoER2 (Homo sapiens) (UniProt Q14114)
[2] = biological target: LRP-2 (Homo sapiens) (UniProt P98164)
[3] = biological target: VLDL receptor (Homo sapiens) (UniProt P98155)
[4] = biological target: LDL receptor (Homo sapiens) (UniProt P01130)

Sequence of LRPAP1 (P30533 35-357): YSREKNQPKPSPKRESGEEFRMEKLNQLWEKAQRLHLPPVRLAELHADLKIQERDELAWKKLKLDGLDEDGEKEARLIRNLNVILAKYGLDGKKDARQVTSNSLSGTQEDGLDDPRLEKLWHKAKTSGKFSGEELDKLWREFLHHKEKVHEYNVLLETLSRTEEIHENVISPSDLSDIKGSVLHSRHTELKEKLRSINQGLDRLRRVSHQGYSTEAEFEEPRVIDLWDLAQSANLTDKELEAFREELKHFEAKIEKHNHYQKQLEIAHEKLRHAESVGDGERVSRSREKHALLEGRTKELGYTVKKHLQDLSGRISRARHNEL
Sequence of LRP-2 (Homo sapiens) (P98164 26-4423): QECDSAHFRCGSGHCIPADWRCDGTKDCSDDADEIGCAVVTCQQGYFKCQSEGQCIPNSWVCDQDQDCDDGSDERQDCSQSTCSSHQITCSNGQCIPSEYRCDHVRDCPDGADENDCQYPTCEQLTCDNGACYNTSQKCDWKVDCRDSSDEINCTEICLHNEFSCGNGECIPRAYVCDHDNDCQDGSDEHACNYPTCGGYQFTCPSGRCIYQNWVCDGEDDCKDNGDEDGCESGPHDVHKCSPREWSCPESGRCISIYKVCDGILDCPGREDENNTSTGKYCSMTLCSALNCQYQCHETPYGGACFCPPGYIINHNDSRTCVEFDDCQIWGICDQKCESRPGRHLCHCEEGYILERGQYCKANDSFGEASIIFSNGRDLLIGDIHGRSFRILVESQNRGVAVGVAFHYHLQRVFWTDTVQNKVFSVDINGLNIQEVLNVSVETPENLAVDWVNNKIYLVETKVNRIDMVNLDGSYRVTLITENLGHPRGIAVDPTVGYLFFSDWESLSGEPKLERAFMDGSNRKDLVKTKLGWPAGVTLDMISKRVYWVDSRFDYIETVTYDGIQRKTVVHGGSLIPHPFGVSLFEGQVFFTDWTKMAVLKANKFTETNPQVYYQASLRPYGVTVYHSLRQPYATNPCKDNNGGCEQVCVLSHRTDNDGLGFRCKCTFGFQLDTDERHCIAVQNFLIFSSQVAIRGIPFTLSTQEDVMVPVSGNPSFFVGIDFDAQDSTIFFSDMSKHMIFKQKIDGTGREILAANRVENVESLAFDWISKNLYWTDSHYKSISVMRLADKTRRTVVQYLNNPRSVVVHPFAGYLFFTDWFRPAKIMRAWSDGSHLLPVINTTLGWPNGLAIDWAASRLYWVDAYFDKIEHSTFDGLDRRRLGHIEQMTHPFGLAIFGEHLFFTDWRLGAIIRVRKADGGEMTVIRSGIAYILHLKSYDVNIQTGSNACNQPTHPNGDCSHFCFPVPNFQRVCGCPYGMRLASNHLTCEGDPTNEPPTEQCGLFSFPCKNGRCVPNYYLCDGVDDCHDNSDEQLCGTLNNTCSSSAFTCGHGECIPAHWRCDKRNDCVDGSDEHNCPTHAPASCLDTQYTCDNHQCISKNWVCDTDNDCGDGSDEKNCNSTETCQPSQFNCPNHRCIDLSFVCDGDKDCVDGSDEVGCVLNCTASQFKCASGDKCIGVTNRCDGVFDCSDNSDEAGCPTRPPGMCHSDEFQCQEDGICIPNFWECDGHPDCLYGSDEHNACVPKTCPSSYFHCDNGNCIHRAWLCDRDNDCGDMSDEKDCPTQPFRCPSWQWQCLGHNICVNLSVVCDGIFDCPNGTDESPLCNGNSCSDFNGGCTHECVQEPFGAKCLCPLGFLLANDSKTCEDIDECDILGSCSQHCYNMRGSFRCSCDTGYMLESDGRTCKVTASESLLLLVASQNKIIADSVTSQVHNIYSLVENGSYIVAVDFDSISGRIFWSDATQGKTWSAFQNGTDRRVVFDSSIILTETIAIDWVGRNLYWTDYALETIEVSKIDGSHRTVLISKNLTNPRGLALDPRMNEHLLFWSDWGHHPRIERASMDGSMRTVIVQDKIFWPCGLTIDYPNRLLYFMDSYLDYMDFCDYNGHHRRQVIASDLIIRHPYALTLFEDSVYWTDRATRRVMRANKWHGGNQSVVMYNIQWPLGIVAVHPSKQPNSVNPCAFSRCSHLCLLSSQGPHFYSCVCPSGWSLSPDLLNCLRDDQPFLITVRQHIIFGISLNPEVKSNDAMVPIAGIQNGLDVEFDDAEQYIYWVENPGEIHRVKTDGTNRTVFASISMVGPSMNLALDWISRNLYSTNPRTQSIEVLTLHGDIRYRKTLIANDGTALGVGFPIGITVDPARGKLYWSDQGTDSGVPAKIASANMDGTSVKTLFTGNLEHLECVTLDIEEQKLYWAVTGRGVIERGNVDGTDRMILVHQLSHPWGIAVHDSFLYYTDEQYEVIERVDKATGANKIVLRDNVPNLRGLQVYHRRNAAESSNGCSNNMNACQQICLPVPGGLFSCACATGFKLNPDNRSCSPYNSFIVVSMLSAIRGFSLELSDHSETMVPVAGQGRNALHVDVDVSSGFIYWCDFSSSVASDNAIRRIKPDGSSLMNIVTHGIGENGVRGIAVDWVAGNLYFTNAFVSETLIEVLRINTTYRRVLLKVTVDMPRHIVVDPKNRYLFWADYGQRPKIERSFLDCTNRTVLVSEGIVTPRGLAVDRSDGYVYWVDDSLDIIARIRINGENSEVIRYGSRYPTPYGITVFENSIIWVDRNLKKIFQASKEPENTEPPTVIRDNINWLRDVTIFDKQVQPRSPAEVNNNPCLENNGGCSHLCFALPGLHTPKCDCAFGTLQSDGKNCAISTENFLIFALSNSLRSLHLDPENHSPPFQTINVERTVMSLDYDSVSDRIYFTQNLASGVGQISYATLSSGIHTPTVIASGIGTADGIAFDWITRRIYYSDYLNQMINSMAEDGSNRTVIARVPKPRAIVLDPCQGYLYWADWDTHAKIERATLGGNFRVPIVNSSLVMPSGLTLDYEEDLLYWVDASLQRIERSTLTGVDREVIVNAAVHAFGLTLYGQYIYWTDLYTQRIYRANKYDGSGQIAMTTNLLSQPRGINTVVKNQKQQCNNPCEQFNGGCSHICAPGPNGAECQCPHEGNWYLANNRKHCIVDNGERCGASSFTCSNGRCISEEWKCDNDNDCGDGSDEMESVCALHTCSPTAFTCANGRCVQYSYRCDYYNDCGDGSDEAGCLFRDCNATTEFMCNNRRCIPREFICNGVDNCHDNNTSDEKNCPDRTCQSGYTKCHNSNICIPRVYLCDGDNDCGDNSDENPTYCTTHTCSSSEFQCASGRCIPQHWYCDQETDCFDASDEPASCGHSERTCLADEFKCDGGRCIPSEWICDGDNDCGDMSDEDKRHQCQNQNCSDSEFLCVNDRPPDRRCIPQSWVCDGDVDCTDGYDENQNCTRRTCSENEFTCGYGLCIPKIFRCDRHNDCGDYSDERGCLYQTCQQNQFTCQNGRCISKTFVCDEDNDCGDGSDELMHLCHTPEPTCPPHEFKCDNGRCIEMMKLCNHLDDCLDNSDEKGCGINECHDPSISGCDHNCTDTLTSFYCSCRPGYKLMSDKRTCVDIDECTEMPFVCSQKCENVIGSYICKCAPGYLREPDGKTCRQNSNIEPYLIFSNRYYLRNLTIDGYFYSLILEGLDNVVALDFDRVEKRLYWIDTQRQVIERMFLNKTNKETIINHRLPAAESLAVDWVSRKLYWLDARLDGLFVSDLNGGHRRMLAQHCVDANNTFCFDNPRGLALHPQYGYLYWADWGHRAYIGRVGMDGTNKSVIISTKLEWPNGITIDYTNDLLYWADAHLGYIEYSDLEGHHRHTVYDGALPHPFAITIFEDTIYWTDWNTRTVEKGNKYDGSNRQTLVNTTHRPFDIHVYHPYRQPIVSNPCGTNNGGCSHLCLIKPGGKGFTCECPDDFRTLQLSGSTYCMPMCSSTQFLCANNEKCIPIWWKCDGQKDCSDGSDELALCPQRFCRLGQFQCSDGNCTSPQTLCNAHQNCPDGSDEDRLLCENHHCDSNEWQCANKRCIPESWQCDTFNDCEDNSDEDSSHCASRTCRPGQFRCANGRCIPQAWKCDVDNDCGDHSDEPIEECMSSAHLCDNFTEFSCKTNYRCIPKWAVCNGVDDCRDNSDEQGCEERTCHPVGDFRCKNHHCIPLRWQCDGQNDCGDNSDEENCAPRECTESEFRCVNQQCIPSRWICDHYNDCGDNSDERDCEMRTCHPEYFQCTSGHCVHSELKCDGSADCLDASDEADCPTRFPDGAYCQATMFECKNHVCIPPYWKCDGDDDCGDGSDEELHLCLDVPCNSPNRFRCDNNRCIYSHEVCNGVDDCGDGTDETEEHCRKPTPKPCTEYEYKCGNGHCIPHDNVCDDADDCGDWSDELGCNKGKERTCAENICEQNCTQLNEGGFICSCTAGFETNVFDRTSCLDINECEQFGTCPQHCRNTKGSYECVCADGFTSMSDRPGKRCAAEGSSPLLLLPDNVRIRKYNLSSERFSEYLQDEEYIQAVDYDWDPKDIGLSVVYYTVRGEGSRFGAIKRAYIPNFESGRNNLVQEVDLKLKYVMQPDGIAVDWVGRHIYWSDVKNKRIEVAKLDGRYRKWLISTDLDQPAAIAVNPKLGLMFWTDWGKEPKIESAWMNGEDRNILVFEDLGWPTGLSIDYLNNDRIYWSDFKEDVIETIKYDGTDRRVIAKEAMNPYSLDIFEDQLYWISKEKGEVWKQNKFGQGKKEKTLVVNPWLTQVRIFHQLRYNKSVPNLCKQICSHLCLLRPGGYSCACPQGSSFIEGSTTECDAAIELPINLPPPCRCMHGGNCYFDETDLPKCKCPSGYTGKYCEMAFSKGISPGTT

Kd [1]: 5 nM
Kd [2]: 8 nM
Kd [3]: 0.7 nM
Kd [4]: 250 nM
Substance: LRPAP1 (from UniProt P30533)
